Measured values from patent publication US20170342107A1 (REGENTS OF THE UNIVERSITY OF MINNESOTA, published 2017).
Where two headings read alike, the source gives them in different places. Square brackets hold non-standard residues; d marks the D form. * marks the point of attachment. Bip = N[C@@H](Cc1ccc(-c2ccccc2)cc1)C(=O)O; Phe(4-I) = N[C@@H](Cc1ccc(I)cc1)C(=O)O; dPhe(4-I) = N[C@H](Cc1ccc(I)cc1)C(=O)O; 2Nal = N[C@@H](Cc1ccc2ccccc2c1)C(=O)O; d2Nal = N[C@H](Cc1ccc2ccccc2c1)C(=O)O; Bta = N[C@@H](Cc1csc2ccccc12)C(=O)O; Tic = O=C(O)[C@@H]1Cc2ccccc2CN1; For = O=C*

Key:
[1] = molecular target: T1, mouse melanocortin-4 receptor (mouse, UniProt P56450 1-332); test: cell-based or functional assay
T1 sequence (P56450 whole entry): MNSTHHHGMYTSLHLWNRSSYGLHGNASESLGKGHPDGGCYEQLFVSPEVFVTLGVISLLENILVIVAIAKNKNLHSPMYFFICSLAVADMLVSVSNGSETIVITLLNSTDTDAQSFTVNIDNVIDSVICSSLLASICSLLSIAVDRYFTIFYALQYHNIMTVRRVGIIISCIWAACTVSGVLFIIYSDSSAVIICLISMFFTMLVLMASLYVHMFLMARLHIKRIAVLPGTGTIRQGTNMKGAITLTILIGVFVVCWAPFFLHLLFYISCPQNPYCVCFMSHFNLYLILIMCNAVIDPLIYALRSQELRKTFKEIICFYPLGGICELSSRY

[2] = molecular target: T2, mouse melanocortin-3 receptor (mouse, UniProt P33033 1-323); test: cell-based or functional assay
T2 sequence (P33033 whole entry): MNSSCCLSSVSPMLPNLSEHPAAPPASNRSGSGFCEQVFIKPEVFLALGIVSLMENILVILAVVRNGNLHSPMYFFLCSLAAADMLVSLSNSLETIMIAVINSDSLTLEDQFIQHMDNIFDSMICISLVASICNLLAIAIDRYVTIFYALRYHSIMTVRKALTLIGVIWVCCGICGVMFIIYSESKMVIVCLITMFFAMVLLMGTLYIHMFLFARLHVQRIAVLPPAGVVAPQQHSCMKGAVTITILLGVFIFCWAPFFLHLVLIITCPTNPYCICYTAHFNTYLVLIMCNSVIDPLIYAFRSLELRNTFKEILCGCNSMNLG

[3] = molecular target: mouse melanocortin-5 receptor (mouse, UniProt P41149 1-325); test: cell-based or functional assay
mouse melanocortin-5 receptor, sequence (P41149 whole entry): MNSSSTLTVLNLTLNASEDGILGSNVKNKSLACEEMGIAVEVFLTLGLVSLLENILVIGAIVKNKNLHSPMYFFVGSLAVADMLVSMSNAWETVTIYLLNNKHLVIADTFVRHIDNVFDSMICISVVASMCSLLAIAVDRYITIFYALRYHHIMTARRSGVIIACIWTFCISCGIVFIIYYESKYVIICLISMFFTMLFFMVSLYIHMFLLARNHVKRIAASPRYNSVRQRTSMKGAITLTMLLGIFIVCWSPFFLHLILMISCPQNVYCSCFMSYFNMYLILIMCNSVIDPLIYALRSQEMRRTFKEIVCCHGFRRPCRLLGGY

[4] = molecular target: mouse melanocortin-1 receptor (mouse, UniProt Q01727 1-315); test: cell-based or functional assay
mouse melanocortin-1 receptor, sequence (Q01727 whole entry): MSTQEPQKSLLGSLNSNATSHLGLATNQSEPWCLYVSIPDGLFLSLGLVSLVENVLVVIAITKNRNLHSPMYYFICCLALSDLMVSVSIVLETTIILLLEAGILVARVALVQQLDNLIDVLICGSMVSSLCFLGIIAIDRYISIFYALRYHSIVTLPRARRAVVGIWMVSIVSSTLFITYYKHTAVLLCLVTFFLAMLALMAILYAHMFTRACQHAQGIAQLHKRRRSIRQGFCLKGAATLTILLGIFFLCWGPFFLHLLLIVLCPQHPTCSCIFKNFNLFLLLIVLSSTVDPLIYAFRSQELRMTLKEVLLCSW

[5] = molecular target: T2, mouse melanocortin-3 receptor; test: cell-based or functional assay; remark: listed apart in the source
[6] = molecular target: T1, mouse melanocortin-4 receptor; test: cell-based or functional assay; remark: listed apart in the source
[7] = molecular target: T1, mouse melanocortin-4 receptor; test: cell-based or functional assay; remark: listed apart in the source
[8] = molecular target: T2, mouse melanocortin-3 receptor; test: 125I-NDP-MSH competitive displacement, HEK293 cells stably expressing mMC3R; negative = more potent than control
Excerpt: (§1) A typical experiment utilized a 12-well format.

[9] = molecular target: T1, mouse melanocortin-4 receptor; test: 125I-NDP-MSH competitive displacement, HEK293 cells stably expressing mMC4R; negative = more potent than control
Excerpt: as §1

Binder	Agonist, % of NDP-MSH maximal response [1]	Agonist, % of NDP-MSH maximal response [2]	Agonist, % of NDP-MSH maximal response [3]	other results
Ac-[Tic]R[dPhe(4-I)][Tic]-NH2 [SKY6-24-1, Ac-Tic-Arg-(pI)DPhe-Tic-NH2]	36 % @ 100 µM	–	–	–
Ac-[2Nal]R[dPhe(4-I)]F-NH2 (SMILES CC(=O)N[C@@H](Cc1ccc2ccccc2c1)C(=O)N[C@@H](CCCNC(=N)N)C(=O)N[C@H](Cc1ccc(I)cc1)C(=O)N[C@@H](Cc1ccccc1)C(N)=O) [SKY4-48-32, Ac-Nal(2')-Arg-(pI)DPhe-Phe-NH2]	–	42 % @ 100 µM	49 % @ 100 µM	–
Ac-[Tic]R[dPhe(4-I)][Bta]-NH2 [SKY4-48-14, Ac-Tic-Arg-(pI)DPhe-3Bal-NH2]	–	–	–	Agonist, % of NDP-MSH maximal response [4]: 38 % @ 100 µM
Ac-[Tic]R[dPhe(4-I)][Bip]-NH2 [SKY5-146-1, Ac-Tic-Arg-(pI)DPhe-Bip-NH2]	–	–	–	Agonist, % of NDP-MSH maximal response [4]: 39 % @ 100 µM
Ac-[Bip]R[dPhe(4-I)][d2Nal]-NH2 [SKY4-48-44, Ac-Bip-Arg-(pI)DPhe-DNal(2')-NH2]	–	32 % @ 100 µM	55 % @ 100 µM	–
Ac-[d2Nal]R[dPhe(4-I)][Bip]-NH2 [SKY5-146-2, Ac-DNal(2')-Arg-(pI)DPhe-Bip-NH2]	42 % @ 100 µM	30 % @ 100 µM	–	–
For-[dF][Phe(4-I)][dR][dH]-NH2 (SMILES N=C(N)NCCC[C@@H](NC(=O)[C@H](Cc1ccc(I)cc1)NC(=O)[C@@H](Cc1ccccc1)NC=O)C(=O)N[C@H](Cc1c[nH]cn1)C(N)=O) [SKY5-142-A, For-DPhe-(pI)Phe-DArg-DHis-NH2]	–	–	–	pA2 (antagonist) [5]: 6.7 pA2; Agonist, % of NDP-MSH maximal response [6]: 47 % @ 100 µM; Antagonist Ki [7]: > 3.1 µM
Ac-[d2Nal]R[dPhe(4-I)][2Nal]-NH2 [SKY5-146-5, Ac-DNal(2')-Arg-(pI)DPhe-Nal(2')-NH2]	39 % @ 100 µM	43 % @ 100 µM	40 % @ 100 µM	–
Ac-HR[dPhe(4-I)][2Nal]-NH2 [SKY4-48-35, Ac-His-Arg-(pI)DPhe-Nal(2')-NH2]	35 % @ 100 µM	57 % @ 100 µM	–	–
Ac-[Bta]R[dPhe(4-I)]F-NH2 (SMILES CC(=O)N[C@@H](Cc1csc2ccccc12)C(=O)N[C@@H](CCCNC(=N)N)C(=O)N[C@H](Cc1ccc(I)cc1)C(=O)N[C@@H](Cc1ccccc1)C(N)=O) [SKY5-146-4, Ac-3Bal-Arg-(pI)DPhe-Phe-NH2]	–	37 % @ 100 µM	35 % @ 100 µM	–
Ac-HR[dPhe(4-I)]W-NH2 (SMILES CC(=O)N[C@@H](Cc1c[nH]cn1)C(=O)N[C@@H](CCCNC(=N)N)C(=O)N[C@H](Cc1ccc(I)cc1)C(=O)N[C@@H](Cc1c[nH]c2ccccc12)C(N)=O) [SKY5-146-7, Ac-His-Arg-(pI)DPhe-Trp-NH2]	–	–	–	Agonist, % of NDP-MSH maximal response [6]: 29 % @ 100 µM; pA2 (antagonist) [6]: 6 pA2
Ac-RR[dPhe(4-I)][Bta]-NH2 [SKY4-48-10, Ac-Arg-Arg-(pI)DPhe-3Bal-NH2]	24 % @ 100 µM	–	–	Fold Diff. (IC50 against SKY4-48-1) [8]: -52 fold; Fold Diff. (IC50 against SKY4-48-1) [9]: 1 fold
Ac-RR[dPhe(4-I)]F-NH2 (SMILES CC(=O)N[C@@H](CCCNC(=N)N)C(=O)N[C@@H](CCCNC(=N)N)C(=O)N[C@H](Cc1ccc(I)cc1)C(=O)N[C@@H](Cc1ccccc1)C(N)=O) [SKY4-48-26, Ac-Arg-Arg-(pI)DPhe-Phe-NH2]	–	–	–	Fold Diff. (IC50 against SKY4-48-1) [8]: -8 fold; Fold Diff. (IC50 against SKY4-48-1) [9]: 4 fold
Ac-HR[dPhe(4-I)][Bta]-NH2 [SKY4-48-11, Ac-His-Arg-(pI)DPhe-3Bal-NH2]	47 % @ 100 µM	–	–	Fold Diff. (IC50 against SKY4-48-1) [8]: -15 fold; Fold Diff. (IC50 against SKY4-48-1) [9]: 2 fold
Ac-[Bta]R[dPhe(4-I)][Tic]-NH2 [SKY4-48-21, Ac-3Bal-Arg-(pI)DPhe-Tic-NH2]	37 % @ 100 µM	–	–	–
Ac-[Bta]R[dPhe(4-I)][d2Nal]-NH2 [SKY4-48-45, Ac-3Bal-Arg-(pI)DPhe-DNal(2')-NH2]	38 % @ 100 µM	34 % @ 100 µM	41 % @ 100 µM	Agonist, % of NDP-MSH maximal response [4]: 36 % @ 100 µM
Ac-FR[dPhe(4-I)][2Nal]-NH2 [SKY4-48-39, Ac-Phe-Arg-(pI)DPhe-Nal(2')-NH2]	–	44 % @ 100 µM	61 % @ 100 µM	–
Ac-FR[dPhe(4-I)][Bip]-NH2 [SKY4-48-7, Ac-Phe-Arg-(pI)DPhe-Bip-NH2]	–	30 % @ 100 µM	–	Agonist, % of NDP-MSH maximal response [4]: 67 % @ 100 µM
Ac-[Tic]R[dPhe(4-I)]F-NH2 (SMILES CC(=O)N1Cc2ccccc2C[C@H]1C(=O)N[C@@H](CCCNC(=N)N)C(=O)N[C@H](Cc1ccc(I)cc1)C(=O)N[C@@H](Cc1ccccc1)C(N)=O) [SKY4-48-30, Ac-Tic-Arg-(pI)DPhe-Phe-NH2]	–	–	21 % @ 100 µM	–
Ac-RR[dPhe(4-I)][Bip]-NH2 [SKY4-48-2, Ac-Arg-Arg-(pI)DPhe-Bip-NH2]	32 % @ 100 µM	45 % @ 100 µM	–	Agonist, % of NDP-MSH maximal response [4]: 44 % @ 100 µM
Ac-[Bip]R[dPhe(4-I)][2Nal]-NH2 [SKY4-48-36, Ac-Bip-Arg-(pI)DPhe-Nal(2')-NH2]	–	–	21 % @ 100 µM	Agonist, % of NDP-MSH maximal response [4]: 23 % @ 100 µM

Second part, led by results:

Agonist, % of NDP-MSH maximal response [1]	Agonist, % of NDP-MSH maximal response [2]	Agonist, % of NDP-MSH maximal response [3]	Binder	other results
50 % @ 100 µM	–	47 % @ 100 µM	Ac-HR[dPhe(4-I)][d2Nal]-NH2 [SKY4-48-43, Ac-His-Arg-(pI)DPhe-DNal(2')-NH2]	–
–	51 % @ 100 µM	–	Ac-RR[dPhe(4-I)][2Nal]-NH2 [SKY4-48-34, Ac-Arg-Arg-(pI)DPhe-Nal(2')-NH2]	–
33 % @ 100 µM	42 % @ 100 µM	74 % @ 100 µM	Ac-[Tic]R[dPhe(4-I)][d2Nal]-NH2 [SKY4-48-46, Ac-Tic-Arg-(pI)DPhe-DNal(2')-NH2]	–
–	39 % @ 100 µM	45 % @ 100 µM	Ac-[2Nal]R[dPhe(4-I)][2Nal]-NH2 [SKY4-48-40, Ac-Nal(2')-Arg-(pI)DPhe-Nal(2')-NH2]	–
45 % @ 100 µM	–	–	Ac-[d2Nal]R[dPhe(4-I)][Bta]-NH2 [SKY4-48-17, Ac-DNal(2')-Arg-(pI)DPhe-3Bal-NH2]	–
37 % @ 100 µM	40 % @ 100 µM	43 % @ 100 µM	Ac-[d2Nal]R[dPhe(4-I)][d2Nal]-NH2 [SKY4-48-49, Ac-DNal(2')-Arg-(pI)DPhe-DNal(2')-NH2]	–
–	–	50 % @ 100 µM	Ac-[Bta]R[dPhe(4-I)][2Nal]-NH2 [SKY4-48-37, Ac-3Bal-Arg-(pI)DPhe-Nal(2')-NH2]	–
–	31 % @ 100 µM	40 % @ 100 µM	Ac-[2Nal]R[dPhe(4-I)][d2Nal]-NH2 [SKY4-48-48, Ac-Nal(2')-Arg-(pI)DPhe-DNal(2')-NH2]	Agonist, % of NDP-MSH maximal response [4]: 53 % @ 100 µM
–	50 % @ 100 µM	52 % @ 100 µM	Ac-FR[dPhe(4-I)]F-NH2 (SMILES CC(=O)N[C@@H](Cc1ccccc1)C(=O)N[C@@H](CCCNC(=N)N)C(=O)N[C@H](Cc1ccc(I)cc1)C(=O)N[C@@H](Cc1ccccc1)C(N)=O) [SKY4-48-31, Ac-Phe-Arg-(pI)DPhe-Phe-NH2]	–
43 % @ 100 µM	53 % @ 100 µM	–	Ac-HR[dPhe(4-I)][Bip]-NH2 [SKY4-48-3, Ac-His-Arg-(pI)DPhe-Bip-NH2]	–
–	–	48 % @ 100 µM	Ac-[Tic]R[dPhe(4-I)][2Nal]-NH2 [SKY4-48-38, Ac-Tic-Arg-(pI)DPhe-Nal(2')-NH2]	Agonist, % of NDP-MSH maximal response [4]: 66 % @ 100 µM
–	77 % @ 100 µM	69 % @ 100 µM	Ac-[Bip]R[dPhe(4-I)]F-NH2 (SMILES CC(=O)N[C@@H](Cc1ccc(-c2ccccc2)cc1)C(=O)N[C@@H](CCCNC(=N)N)C(=O)N[C@H](Cc1ccc(I)cc1)C(=O)N[C@@H](Cc1ccccc1)C(N)=O) [SKY4-48-28, Ac-Bip-Arg-(pI)DPhe-Phe-NH2]	–
–	22 % @ 100 µM	39 % @ 100 µM	Ac-FR[dPhe(4-I)][d2Nal]-NH2 [SKY4-48-47, Ac-Phe-Arg-(pI)DPhe-DNal(2')-NH2]	–
24 % @ 100 µM	–	–	Ac-[Bip]R[dPhe(4-I)][Bip]-NH2 [SKY4-48-4, Ac-Bip-Arg-(pI)DPhe-Bip-NH2]	–
33 % @ 100 µM	–	–	Ac-[2Nal]R[dPhe(4-I)][Tic]-NH2 [SKY4-48-24, Ac-Nal(2')-Arg-(pI)DPhe-Tic-NH2]	–
35 % @ 100 µM	51 % @ 100 µM	–	Ac-[Bta]R[dPhe(4-I)][Bip]-NH2 [SKY4-48-5, Ac-3Bal-Arg-(pI)DPhe-Bip-NH2]	–
